B1: Arabinogalactan endo-beta-1,4-galactanase, P48842 (parent)
chain: MFASLLLAALPLLTHAALTYRGADISSLLLLEDEGYSYKNLNGQTQALETILADAGINSIRQRVWVNPSDGSYDLDYNLELAKRVKAAGMSLYLDLHLSDTWADPSDQTTPSGWSTTDLGTLKWQLYNYTLEVCNTFAENDIDIEIISIGNEIRAGLLWPLGETSSYSNIGALLHSGAWGVKDSNLATTPKIMIHLDDGWSWDQQNYFYETVLATGELLSTDFDYFGVSYYPFYSASATLASLKTSLANLQSTYDKPVVVVETNWPVSCPNPAYAFPSDLSSIPFSVAGQQEFLEKLAAVVEATTDGLGVYYWEPAWIGNAGLGSSCADNLMVDYTTDEVYESIETLGEL

In the series the parent is B1. The note with it: Aspergillus aculeatus; pH 4.5; Thermal; DSC; sodium acetate buffer 50 mM; transition: 2; reversible: no; structure 1FHL; whole UniProt chain shown.

One may read the Tm as the temperature at which the thermal transition is half complete. Turning to G322A, the Tm stood at 62 °C and the “change of melting temperature, mutant - wild type (higher = more stable)” value was determined as 1.1 °C.
In the same order, the values of S201D Q204T are 61 °C and 0.11 °C.
The corresponding values for G120D A172R are 60.7 °C and -0.18 °C.
The corresponding values for Y311F are 61.2 °C and 0.34 °C.
With D198N, the Tm turned out to be 61.4 °C and the “change of melting temperature, mutant - wild type (higher = more stable)” value was 0.53 °C.
In the same order, the values of D74N are 61.5 °C and 0.65 °C.

The record behind these values is FireProtDB (doi:10.1016/j.csbj.2015.03.010).
